Measured values: PMC4820699, “Localisation and protein-protein interactions of the Helicobacter pylori taxis sensor TlpD and their connection to metabolic functions” (Scientific Reports, 2016)

Target: T1, purified recombinant H. pylori catalase (KatA) (H. pylori, UniProt P77872 1-505)
T1 construct: Catalase KatA of Helicobacter pylori, recombinant, active, tag-free; source: E. coli, recombinant, tag-free, purified
T1 sequence: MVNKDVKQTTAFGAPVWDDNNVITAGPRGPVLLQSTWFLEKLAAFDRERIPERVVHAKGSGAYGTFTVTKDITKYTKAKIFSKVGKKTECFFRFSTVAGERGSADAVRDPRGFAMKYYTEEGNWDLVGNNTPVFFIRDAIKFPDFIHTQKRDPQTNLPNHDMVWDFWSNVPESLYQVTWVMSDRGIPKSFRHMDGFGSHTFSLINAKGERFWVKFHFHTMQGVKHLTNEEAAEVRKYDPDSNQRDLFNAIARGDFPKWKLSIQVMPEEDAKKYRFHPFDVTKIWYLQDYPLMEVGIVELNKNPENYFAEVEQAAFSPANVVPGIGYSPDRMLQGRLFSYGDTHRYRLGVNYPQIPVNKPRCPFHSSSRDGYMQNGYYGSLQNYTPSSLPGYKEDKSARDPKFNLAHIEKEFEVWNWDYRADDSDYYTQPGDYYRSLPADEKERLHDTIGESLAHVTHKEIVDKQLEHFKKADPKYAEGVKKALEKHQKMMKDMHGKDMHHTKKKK
Test: BLI; Octet RED96; inverse setting: ligand KatA (tag-free) coupled to the sensor via free amine groups, analyte TlpD-V5 at 200, 400 and 2,000 nM in assay buffer, association 1,800 sec; two-state parallel binding model
Details: both partners purified

B1: TlpD-V5 (purified from H. pylori) (natural protein)
chain: not shown
notes: Transducer-like protein / energy taxis sensor TlpD of Helicobacter pylori; tlpD-V5 fusion gene with the potential tlpD promoter region in pHel2; also called TlpD (V5-tagged); native TlpD-V5; not shown: V5, C-terminal, kept
- KD (fast on, slow off; two-state parallel model): 275 nM
- KD (slow on, fast off; two-state parallel model): 2000 nM
